In paper PMC4504005, “Structural Basis for Receptor Activity-Modifying Protein-Dependent Selective Peptide Recognition by a G Protein-Coupled Receptor” (Molecular cell, 2015):
Where “and” joins values, the source holds several entries; their conditions need not be identical. Equal values may be shown once.

Experiments:
[1] = molecular target: MBP-RAMP2 ECD [L106R]-(GSA)3-CLR ECD-H6 tethered fusion protein (UniProt O60895); assay: AlphaScreen or HTRF; competition assay: purified tethered receptor ECD fusion protein with biotin-CGRP or biotin-AM (100 nM each in Figure 6), unlabelled competitor peptide varied; apparent affinities
[2] = molecular target: MBP-RAMP1 ECD-(GSA)3-CLR ECD-H6 tethered fusion protein (UniProt O60894); assay: as above

AM(22–52)NH2 (peptide) was tested, and the IC50 [1] was 5000 to 15000 nM and the pIC50 [1] was 4.92 and 4.84.

In the case of AM(37–52)NH2 (peptide), the pIC50 [1] is reported as 5.

For CGRP(8–37)NH2 (peptide), the IC50 [2] was 2000 nM and the pIC50 [2] was 5.01.

“CGRP(27–37)NH2 [D31, P34, F35] (peptide)” gave an IC50 [2] of 460 nM and a pIC50 [2] of 6.79.

Work on CGRPmut [F37Y] (peptide) yielded a pIC50 [1] of 4.79 and a pIC50 [2] of 6.24.
